Assay results as given in publication PMC5979349, “The Recombinant Inhibitor of DNA Binding Id2 Forms Multimeric Structures via the Helix-Loop-Helix Domain and the Nuclear Export Signal” (International Journal of Molecular Sciences, 2018).

B1: recombinant full-length human Id2 protein, preparation with oligomers of the type Id2nβMEn (natural protein, UniProt Q02363 1-134, looked up)
chain: MKAFSPVRSVRKNSLSDHSLGISRSKTPVDDPMSLLYNMNDCYSKLKELVPSIPQNKKVSKMEILQHVIDYILDLQIALDSHPTIVSLHHQRPGQNQASRTPLTTLNTDISILSLQASEFPSELMSNDSKALCG
modifications: mixed disulfide with βME, as Id2nβMEn (n = 2–4)
notes: the His-tag of pET22b(+) was excluded by a double stop; Another preparation of the same construct as m1; the formula implies one βME for each monomer, so one cysteine of each monomer is free or in an intermolecular disulfide
B2: recombinant full-length human Id2 protein, sample Id2’ (natural protein, UniProt Q02363 1-134, looked up)
chain: B1 chain
modifications: both cysteine residues (Cys-42 and Cys-133) disulfide-bonded to β-mercaptoethanol (βME); one oxidized methionine residue, Met(O)
notes: the His-tag of pET22b(+) was excluded by a double stop; The most homogeneous unlabeled preparation; also called Id2 1–134

Legend:
[1] = biological target: the molecule itself; experiment: MALDI-TOF mass spectrometry; lyophilized protein dissolved in water, α-cyano-4-hydroxycinnamic acid as matrix
[2] = biological target: the molecule itself; experiment: dynamic light scattering; Id2’ 80 μM in pure water, 21 °C, two weeks old filtered sample; globular model for molecular weight
[3] = biological target: the molecule itself; experiment: dynamic light scattering; Id2’ 80 μM in pure water, 21 °C, measured immediately after filtration (0.2 μm); globular model for molecular weight
[4] = biological target: the molecule itself; experiment: NMR diffusion-ordered spectroscopy (DOSY); unlabeled Id2’ at 0.27 mM in H2O/D2O (94:6, v/v); calibration curve with protein standards

| Protein | stoichiometry N [1] | stoichiometry N [2] [monomers] | stoichiometry N [3] [monomers] | stoichiometry N [4] [monomers] |
| --- | --- | --- | --- | --- |
| B1 | 2 to 4 |  |  |  |
| B2 |  | 16 | 3 | ~16 |
